# Paper PMC12363175
# Biological target: BANAL-20-52 S ectodomain with stabilizing mutations
# Assay: AUC
# Chain of peptidase domain (PD) of hACE2 (Q9BYF1 19-615): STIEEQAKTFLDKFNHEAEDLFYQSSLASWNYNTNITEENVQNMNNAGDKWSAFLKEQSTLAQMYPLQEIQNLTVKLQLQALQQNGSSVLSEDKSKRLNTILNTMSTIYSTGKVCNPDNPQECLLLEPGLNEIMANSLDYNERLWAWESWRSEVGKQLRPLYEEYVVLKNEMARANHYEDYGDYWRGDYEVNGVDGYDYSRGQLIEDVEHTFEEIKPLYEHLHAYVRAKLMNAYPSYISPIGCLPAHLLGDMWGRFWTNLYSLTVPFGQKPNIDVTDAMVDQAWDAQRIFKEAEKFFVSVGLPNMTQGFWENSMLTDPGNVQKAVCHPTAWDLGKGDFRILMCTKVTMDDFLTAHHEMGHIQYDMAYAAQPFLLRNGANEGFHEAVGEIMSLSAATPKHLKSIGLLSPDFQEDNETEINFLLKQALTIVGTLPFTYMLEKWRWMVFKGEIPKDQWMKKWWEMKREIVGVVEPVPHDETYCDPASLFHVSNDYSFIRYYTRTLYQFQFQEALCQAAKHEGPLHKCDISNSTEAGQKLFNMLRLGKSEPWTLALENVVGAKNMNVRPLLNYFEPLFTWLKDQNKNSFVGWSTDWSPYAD
substance,measurement,value
peptidase domain (PD) of hACE2 (from UniProt Q9BYF1 19-615) (domain or fragment),stoichiometry N (hACE2 molecules per S trimer),2
